Assay results taken from patent US20260176319A1 (KALLYOPE, published 2026).
Starred links: 1 amine or outer side, 2 acyl side, 3 side chain; linkers in the order of their positions; H or OH if unused. Non-standard residues stand in square brackets, D forms with d. No end group written: not given here. *: point of attachment. Trp(7-Me) = Cc1cccc2c(C[C@H](N)C(=O)O)c[nH]c12; C20 diacid = O=C(O)CCCCCCCCCCCCCCCCCCC(=O)*; d(γGlu) = O=C(O)[C@@H](CCC(=O)[*:2])N[*:1]; C18 diacid = O=C(O)CCCCCCCCCCCCCCCCC(=O)*; γGlu = O=C(O)[C@H](CCC(=O)[*:2])N[*:1]; Palmitoyl = CCCCCCCCCCCCCCCC(=O)*; 3Pal = N[C@@H](Cc1cccnc1)C(=O)O; Nle = CCCC[C@H](N)C(=O)O; AEEA = NCCOCCOCC(=O)O; Aib = CC(C)(N)C(=O)O; βAla = NCCC(=O)O

B1: Peptide 158 (peptide)
peptide: {C20 diacid}-[γGlu]RRHWAV[dA]HL[Nle]-NH2
SMILES: CCCC[C@H](NC(=O)[C@H](CC(C)C)NC(=O)[C@H](Cc1c[nH]cn1)NC(=O)[C@@H](C)NC(=O)[C@@H](NC(=O)[C@H](C)NC(=O)[C@H](Cc1c[nH]c2ccccc12)NC(=O)[C@H](Cc1c[nH]cn1)NC(=O)[C@H](CCCNC(=N)N)NC(=O)[C@H](CCCNC(=N)N)NC(=O)CC[C@H](NC(=O)CCCCCCCCCCCCCCCCCCC(=O)O)C(=O)O)C(C)C)C(N)=O
B2: Peptide 12 (peptide)
peptide: Palmitoyl-[d(γGlu)][AEEA][AEEA]GN[3Pal]WAV[dA]HL[Nle]-NH2
SMILES: CCCCCCCCCCCCCCCC(=O)N[C@H](CCC(=O)NCCOCCOCC(=O)NCCOCCOCC(=O)NCC(=O)N[C@@H](CC(N)=O)C(=O)N[C@@H](Cc1cccnc1)C(=O)N[C@@H](Cc1c[nH]c2ccccc12)C(=O)N[C@@H](C)C(=O)N[C@H](C(=O)N[C@H](C)C(=O)N[C@@H](Cc1c[nH]cn1)C(=O)N[C@@H](CC(C)C)C(=O)N[C@@H](CCCC)C(N)=O)C(C)C)C(=O)O
B3: Peptide 154 (peptide)
peptide: {C20 diacid}-[γGlu]RNHWAV[dA]HL[Nle]-NH2
SMILES: CCCC[C@H](NC(=O)[C@H](CC(C)C)NC(=O)[C@H](Cc1c[nH]cn1)NC(=O)[C@@H](C)NC(=O)[C@@H](NC(=O)[C@H](C)NC(=O)[C@H](Cc1c[nH]c2ccccc12)NC(=O)[C@H](Cc1c[nH]cn1)NC(=O)[C@H](CC(N)=O)NC(=O)[C@H](CCCNC(=N)N)NC(=O)CC[C@H](NC(=O)CCCCCCCCCCCCCCCCCCC(=O)O)C(=O)O)C(C)C)C(N)=O
B4: Peptide 153 (peptide)
peptide: {C20 diacid}-[γGlu]GRHWAV[dA]HL[Nle]-NH2
SMILES: CCCC[C@H](NC(=O)[C@H](CC(C)C)NC(=O)[C@H](Cc1c[nH]cn1)NC(=O)[C@@H](C)NC(=O)[C@@H](NC(=O)[C@H](C)NC(=O)[C@H](Cc1c[nH]c2ccccc12)NC(=O)[C@H](Cc1c[nH]cn1)NC(=O)[C@H](CCCNC(=N)N)NC(=O)CNC(=O)CC[C@H](NC(=O)CCCCCCCCCCCCCCCCCCC(=O)O)C(=O)O)C(C)C)C(N)=O
B5: Peptide 242 (peptide)
peptide: {C20 diacid}-[γGlu][AEEA][AEEA]GRH[Trp(7-Me)]AV[βAla]HL[Nle]-NH2
SMILES: CCCC[C@H](NC(=O)[C@H](CC(C)C)NC(=O)[C@H](Cc1c[nH]cn1)NC(=O)CCNC(=O)[C@@H](NC(=O)[C@H](C)NC(=O)[C@H](Cc1c[nH]c2c(C)cccc12)NC(=O)[C@H](Cc1c[nH]cn1)NC(=O)[C@H](CCCNC(=N)N)NC(=O)CNC(=O)COCCOCCNC(=O)COCCOCCNC(=O)CC[C@H](NC(=O)CCCCCCCCCCCCCCCCCCC(=O)O)C(=O)O)C(C)C)C(N)=O
B6: Peptide 13 (peptide)
peptide: Palmitoyl-[d(γGlu)][AEEA][AEEA]GNH[Trp(7-Me)]AV[dA]HL[Nle]-NH2
SMILES: CCCCCCCCCCCCCCCC(=O)N[C@H](CCC(=O)NCCOCCOCC(=O)NCCOCCOCC(=O)NCC(=O)N[C@@H](CC(N)=O)C(=O)N[C@@H](Cc1c[nH]cn1)C(=O)N[C@@H](Cc1c[nH]c2c(C)cccc12)C(=O)N[C@@H](C)C(=O)N[C@H](C(=O)N[C@H](C)C(=O)N[C@@H](Cc1c[nH]cn1)C(=O)N[C@@H](CC(C)C)C(=O)N[C@@H](CCCC)C(N)=O)C(C)C)C(=O)O
B7: Peptide 241 (peptide)
peptide: {C20 diacid}-[γGlu][AEEA][AEEA]GQHWAV[βAla]HL[Nle]-NH2
SMILES: CCCC[C@H](NC(=O)[C@H](CC(C)C)NC(=O)[C@H](Cc1c[nH]cn1)NC(=O)CCNC(=O)[C@@H](NC(=O)[C@H](C)NC(=O)[C@H](Cc1c[nH]c2ccccc12)NC(=O)[C@H](Cc1c[nH]cn1)NC(=O)[C@H](CCC(N)=O)NC(=O)CNC(=O)COCCOCCNC(=O)COCCOCCNC(=O)CC[C@H](NC(=O)CCCCCCCCCCCCCCCCCCC(=O)O)C(=O)O)C(C)C)C(N)=O
B8: Peptide 152 (peptide)
peptide: {C18 diacid}-[γGlu][AEEA][AEEA]QHWAV[βAla]HL[Nle]-NH2
SMILES: CCCC[C@H](NC(=O)[C@H](CC(C)C)NC(=O)[C@H](Cc1c[nH]cn1)NC(=O)CCNC(=O)[C@@H](NC(=O)[C@H](C)NC(=O)[C@H](Cc1c[nH]c2ccccc12)NC(=O)[C@H](Cc1c[nH]cn1)NC(=O)[C@H](CCC(N)=O)NC(=O)COCCOCCNC(=O)COCCOCCNC(=O)CC[C@H](NC(=O)CCCCCCCCCCCCCCCCC(=O)O)C(=O)O)C(C)C)C(N)=O
B9: Peptide 14 (peptide)
peptide: Palmitoyl-[d(γGlu)][AEEA][AEEA]GNH[Trp(7-Me)][Aib]V[dA]HL[Nle]-NH2
SMILES: CCCCCCCCCCCCCCCC(=O)N[C@H](CCC(=O)NCCOCCOCC(=O)NCCOCCOCC(=O)NCC(=O)N[C@@H](CC(N)=O)C(=O)N[C@@H](Cc1c[nH]cn1)C(=O)N[C@@H](Cc1c[nH]c2c(C)cccc12)C(=O)NC(C)(C)C(=O)N[C@H](C(=O)N[C@H](C)C(=O)N[C@@H](Cc1c[nH]cn1)C(=O)N[C@@H](CC(C)C)C(=O)N[C@@H](CCCC)C(N)=O)C(C)C)C(=O)O
B10: Peptide 161 (peptide)
peptide: {C18 diacid}-[γGlu][AEEA][AEEA][dF]QHWAV[dA]HL[Nle]-NH2
SMILES: CCCC[C@H](NC(=O)[C@H](CC(C)C)NC(=O)[C@H](Cc1c[nH]cn1)NC(=O)[C@@H](C)NC(=O)[C@@H](NC(=O)[C@H](C)NC(=O)[C@H](Cc1c[nH]c2ccccc12)NC(=O)[C@H](Cc1c[nH]cn1)NC(=O)[C@H](CCC(N)=O)NC(=O)[C@@H](Cc1ccccc1)NC(=O)COCCOCCNC(=O)COCCOCCNC(=O)CC[C@H](NC(=O)CCCCCCCCCCCCCCCCC(=O)O)C(=O)O)C(C)C)C(N)=O
B11: Peptide 159 (peptide)
peptide: {C18 diacid}-[γGlu][AEEA][AEEA]GNHWAV[dA][dH]L[Nle]-NH2
SMILES: CCCC[C@H](NC(=O)[C@H](CC(C)C)NC(=O)[C@@H](Cc1c[nH]cn1)NC(=O)[C@@H](C)NC(=O)[C@@H](NC(=O)[C@H](C)NC(=O)[C@H](Cc1c[nH]c2ccccc12)NC(=O)[C@H](Cc1c[nH]cn1)NC(=O)[C@H](CC(N)=O)NC(=O)CNC(=O)COCCOCCNC(=O)COCCOCCNC(=O)CC[C@H](NC(=O)CCCCCCCCCCCCCCCCC(=O)O)C(=O)O)C(C)C)C(N)=O
B12: Peptide 160 (peptide)
peptide: {C20 diacid}-[γGlu]GNHWAV[dA][dH]L[Nle]-NH2
SMILES: CCCC[C@H](NC(=O)[C@H](CC(C)C)NC(=O)[C@@H](Cc1c[nH]cn1)NC(=O)[C@@H](C)NC(=O)[C@@H](NC(=O)[C@H](C)NC(=O)[C@H](Cc1c[nH]c2ccccc12)NC(=O)[C@H](Cc1c[nH]cn1)NC(=O)[C@H](CC(N)=O)NC(=O)CNC(=O)CC[C@H](NC(=O)CCCCCCCCCCCCCCCCCCC(=O)O)C(=O)O)C(C)C)C(N)=O
B13: Peptide 151 (peptide)
peptide: {C20 diacid}-[γGlu][AEEA][AEEA]GQHWAV[dA]HL[Nle]-NH2
SMILES: CCCC[C@H](NC(=O)[C@H](CC(C)C)NC(=O)[C@H](Cc1c[nH]cn1)NC(=O)[C@@H](C)NC(=O)[C@@H](NC(=O)[C@H](C)NC(=O)[C@H](Cc1c[nH]c2ccccc12)NC(=O)[C@H](Cc1c[nH]cn1)NC(=O)[C@H](CCC(N)=O)NC(=O)CNC(=O)COCCOCCNC(=O)COCCOCCNC(=O)CC[C@H](NC(=O)CCCCCCCCCCCCCCCCCCC(=O)O)C(=O)O)C(C)C)C(N)=O
B14: Peptide 165 (peptide)
peptide: {C20 diacid}-[γGlu]GQHWAV[dA]HL[Nle]-NH2
SMILES: CCCC[C@H](NC(=O)[C@H](CC(C)C)NC(=O)[C@H](Cc1c[nH]cn1)NC(=O)[C@@H](C)NC(=O)[C@@H](NC(=O)[C@H](C)NC(=O)[C@H](Cc1c[nH]c2ccccc12)NC(=O)[C@H](Cc1c[nH]cn1)NC(=O)[C@H](CCC(N)=O)NC(=O)CNC(=O)CC[C@H](NC(=O)CCCCCCCCCCCCCCCCCCC(=O)O)C(=O)O)C(C)C)C(N)=O

Each binder was assayed against human GRP receptor (human, UniProt P30550 1-384) (assay: cell-based or functional assay).
Sequence of human GRP receptor (P30550 whole entry): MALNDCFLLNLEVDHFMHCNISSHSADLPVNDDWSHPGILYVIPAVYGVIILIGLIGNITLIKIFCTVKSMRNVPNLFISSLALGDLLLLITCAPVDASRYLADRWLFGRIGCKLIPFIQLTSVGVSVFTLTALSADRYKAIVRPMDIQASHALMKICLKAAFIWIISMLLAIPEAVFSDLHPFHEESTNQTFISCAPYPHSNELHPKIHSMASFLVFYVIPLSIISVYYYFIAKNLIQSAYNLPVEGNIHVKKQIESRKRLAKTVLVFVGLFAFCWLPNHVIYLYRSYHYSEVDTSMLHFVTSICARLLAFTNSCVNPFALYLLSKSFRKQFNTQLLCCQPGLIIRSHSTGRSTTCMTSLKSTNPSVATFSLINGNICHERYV

| Binder | hIP1 GRPR EC50 |
| --- | --- |
| B1 | 1.68 nM |
| B2 | 1.8 nM |
| B3 | 7.09 nM |
| {C18 diacid}-[γGlu][AEEA][AEEA]GRHWAV[dA]HL[Nle] [Peptide 166] | 248 nM |
| B4 | 2.87 nM |
| EEXXGNHWAVGHLX (Palmitoyl-γGlu-γGlu-OEG-OEG-Gly-Asn-His-Trp-Ala-Val-Gly-His-Leu-Nle-NH2) [Peptide 240] | 11.9 nM |
| B5 | 3.9 nM |
| B6 | 1.08 nM |
| {C20 diacid}-[γGlu]GRHWAV[dA]HL[Nle] [Peptide 162] | 19.6 nM |
| {C18 diacid}-[γGlu][AEEA][AEEA]RNHWAV[dA]HL[Nle] [Peptide 156] | 358 nM |
| B7 | 2 nM |
| B8 | 3.9 nM |
| B9 | 10.8 nM |
| {C20 diacid}-[γGlu][AEEA][AEEA]GRHWAV[dA]HL[Nle] [Peptide 167] | 114 nM |
| {C20 diacid}-[γGlu]GNHWAV[dA]HL[Nle] [Peptide 164] | 125 nM |
| {C20 diacid}-[γGlu]RRHWAV[dA]HL[Nle] [Peptide 163] | 88.5 nM |
| {C18 diacid}-[γGlu][AEEA][AEEA]RRHWAV[dA]HL[Nle] [Peptide 157] | 161 nM |
| B10 | 21.4 nM |
| B11 | 101 nM |
| B12 | 31.5 nM |
| B13 | 2.92 nM |
| {C20 diacid}-[γGlu]RNHWAV[dA]HL[Nle] [Peptide 155] | 132 nM |
| B14 | 1.55 nM |
